Reference: patent US20250277048A1 (Regeneron, published 2025)

Assays:
[1] = target: T1, human CD40 (hCD40) expressed on cells (human, UniProt P25942 21-277); test: cell-based or functional assay
[2] = target: T2, Macaca fascicularis CD40 (mfCD40) expressed on HEK293/D9/mfCD40 cells (Macaca fascicularis, UniProt G7PG38 21-278); test: flow cytometry, HEK293/D9/mfCD40 cells
T2 construct: whole, on cells; also called monkey CD40
Experimental: (§1) Cells were washed with 2% FBS (w/v) in 1×PBS (flow cytometry staining buffer) by centrifugation with benchtop Centrifuge 5810R (Eppendorf®, Hamburg, Germany). Cells were incubated for 30 minutes at 4° C. with serial dilutions of following antibodies ranging from 1.7 pM to 100 nM in flow cytometry staining buffer (1) anti-CD40×CD40 bispecific antibodies, or (2) parental anti-CD40 antibodies (bivalent antibodies comprising 2 fragment antigen-binding [Fab] arms identical to one of the two anti-CD40 Fab of bispecific anti-CD40×CD40 antibodies), or (3) anti-CD40×Irrelevant antibodies (bivalent antibodies that incorporate one Fab arm identical to one of anti-CD40 Fab of anti-CD40×CD40 antibodies and another Fab arm specific to an irrelevant antigen, i.e. birch pollen main allergen Bet v1), or (4) human IgG4 isotype control antibodies with Fc mutation. After washing, cell bound antibodies were detected with 2.5 μg/ml Allophycocyanin (APC)-conjugated goat anti-human IgG antibody specific for the Fcγ fragment (Jackson Immunoresearch, West Grove, PA) for 30 minutes at 4° C. Cells were washed and subsequently fixed with 50% solution of Cytofix™ Fixation Buffer (BD, Franklin Lakes, NJ) in flow cytometry staining buffer for 20 minutes at room temperature. Cells were washed and resuspended in flow cytometry staining buffer and stored at 4° C. for downstream flow cytometry analysis.
(§2) Acquisition of fluorescence signals were recorded on the ZE5 Cell Analyzer (Bio-Rad, Hercules, CA) according to the manufacturer's recommended procedure and flow cytometry data analysis was performed using the open-source R packages flowCore, flowStats, flowDensity, ggCyto, and flowAI. Multiplexed samples were deconvoluted and individual cell populations were identified based on their unique CellTrace™ fluorescence signature. APC Median Fluorescence intensity (MFI) was recorded to indicate the binding intensity of each antibody over a range of concentrations. Antibodies with MFI greater than 1500 at the highest tested concentration (100 nM) were classified as specific binders. In addition, direct binding signals (APC MFI) were analyzed as a function of the antibody concentration and data were fitted with a sigmoidal (four-parameter logistic) dose-response model using GraphPad Prism™ software.

[3] = target: T1, human CD40 (hCD40) expressed on cells; test: flow cytometry, Ramos 2G6.4C10 cells
Experimental: as §1, §2

[4] = target: T3, human CD40 extracellular domain expressed with a C-terminal myc-myc-hexahistidine tag (human); test: ELISA blocking of 40 nM hCD40-mmH binding to 9His-hCD40L
T3 construct: also called hCD40-MMH; hCD40-mmH
Source text: An ELISA-based blocking assay was developed to determine the ability of C40×CD40 bispecific antibodies to block the binding of the hCD40 monomer to plate-coated hCD40L. The recombinant human CD40-mmH protein (hCD40-MMH; REGN3094; SEQ ID NO: 53) used in the experiments comprises a portion of the human CD40 extracellular domain (amino acids P20-R193) fused to 2×Myc peptide and 6×histadine (SEQ ID NO: 1110) at the C-terminus of human CD40, and the human CD40L (accession #NM_000074.2) with amino acids E108-L261 of the extracellular domain with 9×His-2×(SGGG)-IGER at the N-terminus (9His-hCD40L) was commercially obtained from Biolegend.
In the blocking assay, 9His-hCD40L was passively absorbed at a concentration of 5 μg/mL in PBS on a 96-well microtiter plate overnight at 4° C. […] In a separate 96-well microtiter plate, a fixed amount of 40 nM hCD40-mmH was pre-mixed with one of the following antibodies, at concentrations ranging from 977 pM to 1 μM in PBS+0.5% BSA: (1) CD40×CD40 bispecific antibodies (REGN16431, REGN16432, REGN16634, and REGN16335); (2) parental CD40 mAbs (bivalent antibodies comprising 2 fragment antigen-binding [Fab] arms identical to one of anti-CD40 Fab of CD40×CD40 antibodies); (3) CD40×Irrelevant antibodies (bivalent antibodies that incorporate one Fab arm identical to one of anti-CD40 Fab of CD40×CD40 antibodies and another Fab arm specific to an irrelevant antigen); and (4) human IgG4 with Fc mutation isotype control antibodies (REGN7540 and REGN4513). The fixed concentration of hCD40-mmH was selected to be near the concentration (EC₅₀ value) that generated 50% of the maximal binding to the plate-adhered 9His-hCD40L. After one-hour incubation, the antibody-antigen complexes were transferred to the microtiter plate coated with 9His-hCD40L. After one hour incubation at room temperature, the plates were washed, and plate-bound hCD40-mmH protein was detected with horseradish peroxidase (HRP) conjugated goat anti-c-Myc antibody. The plates were then developed using TMB substrate solution (BD Biosciences) according to the manufacturer's recommended procedure and the absorbance at 450 nm (OD₄₅₀) was measured on a SpectraMax i3×plate reader.

T1 sequence (P25942 21-277): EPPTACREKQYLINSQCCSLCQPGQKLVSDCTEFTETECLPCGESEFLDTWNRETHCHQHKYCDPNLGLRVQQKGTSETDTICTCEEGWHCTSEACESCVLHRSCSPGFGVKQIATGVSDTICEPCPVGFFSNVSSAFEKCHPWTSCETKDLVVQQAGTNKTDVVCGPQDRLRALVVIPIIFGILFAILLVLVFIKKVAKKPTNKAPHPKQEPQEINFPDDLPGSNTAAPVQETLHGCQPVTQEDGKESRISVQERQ

| Binder | IC50, 10 nM hCD40L, THP-1 NFkB-luc [1] [nM] | Max % activation, no ligand, THP-1 NFkB-luc [1] [%] | Max % inhibition, 10 nM hCD40L, THP-1 NFkB-luc [1] [%] | EC50 [2] [nM] | MFI at 100 nM [2] [MFI] | EC50 [3] [nM] | MFI at 100 nM [3] [MFI] | % Blocking at 1 uM mAb [4] [%] | IC50 [4] [nM] | EC50 (potentiation), 10 nM hCD40L, THP-1 NFkB-luc [1] [nM] |
| --- | --- | --- | --- | --- | --- | --- | --- | --- | --- | --- |
| REGN16431 (bispecific antibody, human IgG4 S228P, kappa, D1 arm from 21519P2, D2 arm from 21520P2, common light chain; also called CD40xCD40 (21519 x 21520)) heavy 1: QLQLQESGPGLVRPSETLSLTCSVSGASMNTNNYYWGWIRQPPGKGLEWIGSGYYNGNTYYNPSLKSRVTISVDTSKNQFSLKLNSVTAADTAVYYCARQTPPRIIGSPNIWGQGTMVTVSSASTKGPSVFPLAPCSRSTSESTAALGCLVKDYFPEPVTVSWNSGALTSGVHTFPAVLQSSGLYSLSSVVTVPSSSLGTKTYTCNVDHKPSNTKVDKRVESKYGPPCPPCPAPPVAGPSVFLFPPKPKDTLMISRTPEVTCVVVDVSQEDPEVQFNWYVDGVEVHNAKTKPREEQFNSTYRVVSVLTVLHQDWLNGKEYKCKVSNKGLPSSIEKTISKAKGQPREPQVYTLPPSQEEMTKNQVSLTCLVKGFYPSDIAVEWESNGQPENNYKTTPPVLDSDGSFFLYSRLTVDKSRWQEGNVFSCSVMHEALHNHYTQKSLSLSLGK heavy 2: EVQLVESGGGLVQPGGSLRLSCAASGFTFGSYGMAWVRQAPGKGLEWVSAISGSGDYTNYADSVKRRFTISRDNSKNTLYLQMSSLRAEDTAVYYCAKEKTGTTGYLYSGMDVWGQGTTVTVSSASTKGPSVFPLAPCSRSTSESTAALGCLVKDYFPEPVTVSWNSGALTSGVHTFPAVLQSSGLYSLSSVVTVPSSSLGTKTYTCNVDHKPSNTKVDKRVESKYGPPCPPCPAPPVAGPSVFLFPPKPKDTLMISRTPEVTCVVVDVSQEDPEVQFNWYVDGVEVHNAKTKPREEQFNSTYRVVSVLTVLHQDWLNGKEYKCKVSNKGLPSSIEKTISKAKGQPREPQVYTLPPSQEEMTKNQVSLTCLVKGFYPSDIAVEWESNGQPENNYKTTPPVLDSDGSFFLYSRLTVDKSRWQEGNVFSCSVMHEALHNRFTQKSLSLSPGK light: not shown | 0.287 | 2 | 98 | 8.4 | 43100 | 1.9 | 3850 | 93 | 33 | – |
| REGN16432 (bispecific antibody, human IgG4 S228P, kappa, D1 arm from 30027P2, D2 arm from 21520P2, common light chain; also called CD40xCD40 (30027 x 21520)) heavy 1: EVQLVESGGGLVQPGGSLRLSCAASGFTFSSYAMNWVRQAPGKGLEWVSIISGTIGKTYYADSVKGRFTISRDNSKNTLYLQMNSLRGEDTAVYYCAKDTERDITGSPFDYWGQGTLVTVSSASTKGPSVFPLAPCSRSTSESTAALGCLVKDYFPEPVTVSWNSGALTSGVHTFPAVLQSSGLYSLSSVVTVPSSSLGTKTYTCNVDHKPSNTKVDKRVESKYGPPCPPCPAPPVAGPSVFLFPPKPKDTLMISRTPEVTCVVVDVSQEDPEVQFNWYVDGVEVHNAKTKPREEQFNSTYRVVSVLTVLHQDWLNGKEYKCKVSNKGLPSSIEKTISKAKGQPREPQVYTLPPSQEEMTKNQVSLTCLVKGFYPSDIAVEWESNGQPENNYKTTPPVLDSDGSFFLYSRLTVDKSRWQEGNVFSCSVMHEALHNHYTQKSLSLSLGK heavy 2: EVQLVESGGGLVQPGGSLRLSCAASGFTFGSYGMAWVRQAPGKGLEWVSAISGSGDYTNYADSVKRRFTISRDNSKNTLYLQMSSLRAEDTAVYYCAKEKTGTTGYLYSGMDVWGQGTTVTVSSASTKGPSVFPLAPCSRSTSESTAALGCLVKDYFPEPVTVSWNSGALTSGVHTFPAVLQSSGLYSLSSVVTVPSSSLGTKTYTCNVDHKPSNTKVDKRVESKYGPPCPPCPAPPVAGPSVFLFPPKPKDTLMISRTPEVTCVVVDVSQEDPEVQFNWYVDGVEVHNAKTKPREEQFNSTYRVVSVLTVLHQDWLNGKEYKCKVSNKGLPSSIEKTISKAKGQPREPQVYTLPPSQEEMTKNQVSLTCLVKGFYPSDIAVEWESNGQPENNYKTTPPVLDSDGSFFLYSRLTVDKSRWQEGNVFSCSVMHEALHNRFTQKSLSLSPGK light: not shown | 0.148 | 6 | 97 | 2.1 | 48700 | 1.1 | 3850 | 95 | 32 | – |
| 21520P2 (antibody, human IgG4 S228P, kappa, V domains shown, parental bivalent anti-CD40 mAb; common light chain; also called H4sH21520P2) VH: EVQLVESGGGLVQPGGSLRLSCAASGFTFGSYGMAWVRQAPGKGLEWVSAISGSGDYTNYADSVKRRFTISRDNSKNTLYLQMSSLRAEDTAVYYCAKEKTGTTGYLYSGMDVWGQGTTVTVSS VL: not shown | 0.437 | 1 | 97 | 3.7 | 24100 | 0.8 | 2450 | 94 | 62 | – |
| 30027P2 (antibody, human IgG4 S228P, kappa, V domains shown, parental bivalent anti-CD40 mAb; common light chain; also called H4sH30027P2) VH: EVQLVESGGGLVQPGGSLRLSCAASGFTFSSYAMNWVRQAPGKGLEWVSIISGTIGKTYYADSVKGRFTISRDNSKNTLYLQMNSLRGEDTAVYYCAKDTERDITGSPFDYWGQGTLVTVSS VL: not shown | – | 2 | -61 | 1 | 33900 | 0.45 | 2620 | 10 | – | 0.00251 |
| 21519P2 (antibody, human IgG4 S228P, kappa, V domains shown, parental bivalent anti-CD40 mAb; common light chain; also called H4sH21519P2) VH: QLQLQESGPGLVRPSETLSLTCSVSGASMNTNNYYWGWIRQPPGKGLEWIGSGYYNGNTYYNPSLKSRVTISVDTSKNQFSLKLNSVTAADTAVYYCARQTPPRIIGSPNIWGQGTMVTVSS VL: not shown | 0.276 | 5 | 99 | 10 | 11500 | 1.5 | 2410 | 94 | 61 | – |
